Assays:
[1] = molecular target: T1, human CD3ε-his (Cat #:10977-H08s, SinoBiological, China) (human, UniProt P07766 23-126); assay: SPR (BIAcore 8K); human CD3ε-his coupled to CM5 chip, antibody injected
T1 construct: Bought protein; also called human CD3ε protein; recombinant human CD3ε; not shown: his tag

[2] = molecular target: T2, monkey CD3ε-his (Cat #: 90047-C08H, SinoBiological, China) (monkey, UniProt Q95LI5 22-117); assay: ELISA: plate coated with monkey CD3ε-his, antibody titrated, HRP goat anti-human IgG, OD 450
T2 construct: Bought protein; also called monkey CD3ε protein; recombinant monkey CD3ε
T2 sequence: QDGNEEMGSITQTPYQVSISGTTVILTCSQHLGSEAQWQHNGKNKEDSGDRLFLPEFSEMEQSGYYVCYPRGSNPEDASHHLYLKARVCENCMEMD

[3] = molecular target: T1, human CD3ε-his (Cat #:10977-H08s, …); assay: ELISA: plate coated with human CD3ε-his, antibody titrated, HRP goat anti-human IgG, OD450
[4] = molecular target: T1, human CD3ε-his (Cat #:10977-H08s, …); assay: ELISA: plate coated with human CD3ε-his, antibody titrated, HRP goat anti-human IgG, OD 450
[5] = molecular target: T2, monkey CD3ε-his (Cat #: 90047-C08H, …); assay: ELISA: plate coated with monkey CD3ε-his, antibody titrated, HRP goat anti-human IgG, OD450
[6] = molecular target: T3, human TCR/CD3 complex on cell surfaces (primary human CD4+ T cells; Jurkat cells; human PBMCs) (human, UniProt P07766 23-207); assay: FACS on primary human T cells, PE goat anti-human IgG, MFI
T3 construct: whole, on cells; Native complex on cells; the γ, δ, ζ and TCR chains of the complex are present on the cells too; also called human CD3 complexes on cell surfaces; human CD3+ T cells
T3 sequence (P07766 23-207, one chain of several): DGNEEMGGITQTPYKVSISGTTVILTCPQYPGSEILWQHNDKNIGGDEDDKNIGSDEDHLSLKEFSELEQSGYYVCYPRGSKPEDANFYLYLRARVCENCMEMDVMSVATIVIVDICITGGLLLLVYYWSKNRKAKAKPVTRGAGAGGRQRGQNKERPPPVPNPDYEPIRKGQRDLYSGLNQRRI

[7] = molecular target: T2, monkey CD3ε-his (Cat #: 90047-C08H, …); assay: ELISA: plate coated with monkey CD3ε-his, antibody titrated, HRP goat anti-human IgG, OD 450; remark: listed apart in the source
[8] = molecular target: T1, human CD3ε-his (Cat #:10977-H08s, …); assay: ELISA: plate coated with human CD3ε-his, antibody titrated, HRP goat anti-human IgG, OD 450; remark: listed apart in the source
[9] = molecular target: T3, human TCR/CD3 complex on cell surfaces …; assay: FACS on primary human T cells, PE goat anti-human IgG, MFI; remark: listed apart in the source
[10] = molecular target: T3, human TCR/CD3 complex on cell surfaces …; assay: as above; remark: listed apart in the source
[11] = molecular target: T4, human CD64 (HEK293A/human CD64 cells) (human, UniProt P12314 16-374); assay: FACS on HEK293A/human CD64 cells, PE F(ab')2 goat anti-human IgG Fc, MFI; bars at 40, 8, 1.6, 0.32 and 0.064 µg/mL
T4 construct: Stably expressed on HEK293A cells; also called FcγRI
T4 sequence (P12314 16-374 limits assumed): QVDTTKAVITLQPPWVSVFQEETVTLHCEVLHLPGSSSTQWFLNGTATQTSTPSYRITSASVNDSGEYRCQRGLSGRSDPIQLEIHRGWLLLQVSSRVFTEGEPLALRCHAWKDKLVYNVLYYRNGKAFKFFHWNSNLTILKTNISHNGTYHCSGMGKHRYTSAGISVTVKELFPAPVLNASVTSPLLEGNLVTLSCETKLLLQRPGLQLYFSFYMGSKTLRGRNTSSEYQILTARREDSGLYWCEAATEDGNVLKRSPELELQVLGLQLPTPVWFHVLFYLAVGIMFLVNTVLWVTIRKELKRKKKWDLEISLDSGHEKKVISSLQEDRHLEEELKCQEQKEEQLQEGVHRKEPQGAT

[12] = molecular target: T5, human CD32A (HEK293A/human CD32A cells) (human, UniProt P12318 34-317); assay: FACS on HEK293A/human CD32A cells, PE F(ab')2 goat anti-human IgG Fc, MFI; bars at 40, 8, 1.6, 0.32 and 0.064 µg/mL
T5 construct: Stably expressed on HEK293A cells; also called FcγRIIA
T5 sequence: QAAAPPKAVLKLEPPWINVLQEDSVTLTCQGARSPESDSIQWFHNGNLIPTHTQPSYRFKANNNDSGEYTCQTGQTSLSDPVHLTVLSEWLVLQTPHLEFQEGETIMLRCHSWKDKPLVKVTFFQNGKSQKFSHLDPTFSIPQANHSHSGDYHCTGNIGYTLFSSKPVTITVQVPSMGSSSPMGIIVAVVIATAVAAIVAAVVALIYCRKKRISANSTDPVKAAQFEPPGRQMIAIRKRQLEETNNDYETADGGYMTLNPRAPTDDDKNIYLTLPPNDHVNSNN

[13] = molecular target: T3, human TCR/CD3 complex on cell surfaces …; assay: FACS on Jurkat cells, PE goat anti-human IgG, MFI
[14] = molecular target: T6, human CD32B (HEK293A/human CD32B cells) (human, UniProt P31994 43-310); assay: FACS on HEK293A/human CD32B cells, PE F(ab')2 goat anti-human IgG Fc, MFI; bars at 40, 8, 1.6, 0.32 and 0.064 µg/mL
T6 construct: Stably expressed on HEK293A cells; also called FcγRIIB
T6 sequence: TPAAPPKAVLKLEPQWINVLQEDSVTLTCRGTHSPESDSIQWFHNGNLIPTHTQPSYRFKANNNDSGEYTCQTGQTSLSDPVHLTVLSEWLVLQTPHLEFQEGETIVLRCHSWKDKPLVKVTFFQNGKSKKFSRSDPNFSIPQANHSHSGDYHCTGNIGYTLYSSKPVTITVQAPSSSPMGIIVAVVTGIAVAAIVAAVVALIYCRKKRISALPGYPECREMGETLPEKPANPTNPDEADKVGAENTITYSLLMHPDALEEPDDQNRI

[15] = molecular target: T7, human CD16A (HEK293A/human CD16A cells) (human, UniProt P08637 17-254); assay: FACS on HEK293A/human CD16A cells, PE F(ab')2 goat anti-human IgG Fc, MFI; bars at 40, 8, 1.6, 0.32 and 0.064 µg/mL
T7 construct: Stably expressed on HEK293A cells; also called FcγRIIIA
T7 sequence (P08637 17-254 F176V limits assumed): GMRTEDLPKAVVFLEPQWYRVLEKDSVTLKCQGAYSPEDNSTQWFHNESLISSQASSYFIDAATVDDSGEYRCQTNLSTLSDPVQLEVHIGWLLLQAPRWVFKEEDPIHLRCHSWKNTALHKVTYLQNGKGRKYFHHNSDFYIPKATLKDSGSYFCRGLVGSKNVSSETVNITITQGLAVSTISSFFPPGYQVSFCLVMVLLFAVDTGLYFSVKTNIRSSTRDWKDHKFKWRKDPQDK

T1 sequence (P07766 23-126 limits assumed): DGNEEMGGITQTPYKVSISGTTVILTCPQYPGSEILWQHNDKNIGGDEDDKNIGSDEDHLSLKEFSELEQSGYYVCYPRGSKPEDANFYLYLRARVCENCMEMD

Binder | EC50 (read off the curve) [7] [µg/mL] | EC50 (read off the curve) [8] [µg/mL] | binding result [11] | binding result [12] | EC50 (read off the curve) [13] [µg/mL] | binding result [14] | binding result [15] | also measured
mAB2 (anti-CD3 antibody of Macrogenics, positive control) (antibody, V domains shown) VH: EVQLVESGGGLVQPGGSLKLSCAASGFTFNTYAMNWVRQAPGKGLEWVARIRSKYNNYATYYADSVKDRFTISRDDSKNTAYLQMNSLKTEDTAVYYCVRHGNFGDSYVSWFAYWGQGTLVTVSS VL: QTVVTQEPSLTVSPGGTVTLTCRSSTGAVTTSNYANWVQQKPGQAPRGLIGGTNKRAPGTPARFSGSLLGGKAALTLSGVQPEDEAEYYCALWYSNLWVFGGGTKLTVL | – | – | – | – | – | – | – | Kd [1]: 0.154 nM
chimeric antibody 19-15 (full length, human IgG1) (antibody, V domains shown) VH: EVKLLESGGGLVQPKGSLKLSCAASGFTFNTYAMNWVRQAPGKGLEWVARIRSKYNNYATYYAISVKDRFTISRDDSQSILYLQMNNLKTEDTAMYYCVRHGNFGNSYLSYWAYWGQGTLVTVSA VL: QAVVTQESALTTSPGETVTLTCQSSTGAVTTNNYANWVQEKPDHLFTGLIGGTKQRAPGVPARFSGSLIGDKAALTITGAQTEDEAIYFCVLWYSNLWVFGGGTKLTVLG | – | – | – | – | – | – | – | kon [1]: 229000 M⁻¹ s⁻¹; EC50 (read off the curve) [2]: ~0.04 µg/mL; EC50 (read off the curve) [3]: ~60 µg/mL; EC50 (read off the curve) [4]: ~0.05 µg/mL; EC50 (read off the curve) [5]: ~60 µg/mL; EC50 (read off the curve) [6]: ~200 µg/mL
humanized anti-CD3 antibody 26H3L3 (human IgG1) (antibody, V domains shown) VH: EVQLLESGGGLVQPGGSLRLSCAASGFTFNTYAMNWVRQAPGKGLEWVARIRSKYNNYATYYADSVKDRFTISRDDSKNTLYLQMNSLRAEDTAMYYCVRHGNFGNSYISWWAYWGQGTLVTVSS VL: QAVVTQEPSLTVSPGGTVTLTCKSSTGAVTTSNYANWVQQKPGHAFRGLIGGTNLHAPGVPARFSGSLLGGKAALTLSGVQPEDEAEYYCALWYSNLWVFGGGTKLTVLG | ~0.1 | ~0.08 | – | – | – | – | – | –
humanized anti-CD3 antibody 26H2L3 (human IgG1) (antibody, V domains shown) VH: EVQLLESGGGLVQPGGSLRLSCAASGFTFNTYAMNWVRQAPGKGLEWVARIRSKYNNYATYYADSVKDRFTISRDNSKNTLYLQMNSLRAEDTAVYYCVKHGNFGNSYISWWAYWGQGTLVTVSS VL: QAVVTQEPSLTVSPGGTVTLTCKSSTGAVTTSNYANWVQQKPGHAFRGLIGGTNLHAPGVPARFSGSLLGGKAALTLSGVQPEDEAEYYCALWYSNLWVFGGGTKLTVLG | ~0.1 | ~0.1 | – | – | – | – | – | EC50 (read off the curve) [9]: ~0.1 µg/mL
humanized anti-CD3 antibody 15H3L2 (human IgG1) (antibody, V domains shown) VH: EVQLLESGGGLVQPGGSLRLSCAASGFTFNTYAMNWVRQAPGKGLEWVARIRSKYNNYATYYAISVKDRFTISRDDSKNTLYLQMNSLRAEDTAMYYCVRHGNFGNSYLSYWAYWGQGTLVTVSS VL: QTVVTQEPSLTVSPGGTVTLTCQSSTGAVTTNNYANWVQQKPGQAPRALIGGTKQRAPGTPARFSGSLLGGKAALTLSGVQPEDEAEYYCVLWYSNLWVFGGGTKLTVLG | – | – | – | – | – | – | – | EC50 (read off the curve) [10]: ~0.2 µg/mL; EC50 (read off the curve) [3]: ~100 µg/mL; EC50 (read off the curve) [5]: ~100 µg/mL
chimeric antibody 19-26 (full length, human IgG1) (antibody, V domains shown) VH: EVKLLESGGGLVQPKGSLKLSCAASGFTFNTYAMNWVRQAPGKGLEWVARIRSKYNNYATYYADSVKDRFTISRDDSQSILYLQMNNLKTEDTAMYYCVRHGNFGNSYISWWAYWGQGTLVTVSA VL: QAVVTQESALTTSPGETVTLTCKSSTGAVTTSNYANWVQEKPDHLFTGLIGGTNLHAPGVPARFSGSLIGDKAALTITGAQTEDEAIYFCALWYSNLWVFGGGTKLTVLG | ~0.1 | ~0.1 | – | – | – | – | – | EC50 (read off the curve) [9]: ~0.2 µg/mL; EC50 (read off the curve) [4]: ~0.05 µg/mL; EC50 (read off the curve) [6]: ~700 µg/mL
15H3L3-WT (15H3L3 with wild-typed IgG1 constant region and λ constant region SEQ ID NO: 32) (antibody, also called 15H3L3 antibody with wild-typed Fc region) heavy: not shown light: QAVVTQEPSLTVSPGGTVTLTCQSSTGAVTTNNYANWVQQKPGHAFRGLIGGTKQRAPGVPARFSGSLLGGKAALTLSGVQPEDEAEYYCVLWYSNLWVFGGGTKLTVLGQPKAAPSVTLFPPSSEELQANKATLVCLISDFYPGAVTVAWKADSSPVKAGVETTTPSKQSNNKYAASSYLSLTPEQWKSHRSYSCQVTHEGSTVEKTVAPT | – | – | binds | binds | ~0.1 | binds | binds | –
15H3L3-LLNP (15H3L3 with IgG1 constant region L234A/L235A/N297A/P329G) (antibody, also called 15H3L3-LLPN) heavy: EVQLLESGGGLVQPGGSLRLSCAASGFTFNTYAMNWVRQAPGKGLEWVARIRSKYNNYATYYAISVKDRFTISRDDSKNTLYLQMNSLRAEDTAMYYCVRHGNFGNSYLSYWAYWGQGTLVTVSSASTKGPSVFPLAPSSKSTSGGTAALGCLVKDYFPEPVTVSWNSGALTSGVHTFPAVLQSSGLYSLSSVVTVPSSSLGTQTYICNVNHKPSNTKVDKKVEPKSCDKTHTCPPCPAPEAAGGPSVFLFPPKPKDTLMISRTPEVTCVVVDVSHEDPEVKFNWYVDGVEVHNAKTKPREEQYASTYRVVSVLTVLHQDWLNGKEYKCKVSNKALGAPIEKTISKAKGQPREPQVYTLPPSREEMTKNQVSLTCLVKGFYPSDIAVEWESNGQPENNYKTTPPVLDSDGSFFLYSKLTVDKSRWQQGNVFSCSVMHEALHNHYTQKSLSLSPGK light: QAVVTQEPSLTVSPGGTVTLTCQSSTGAVTTNNYANWVQQKPGHAFRGLIGGTKQRAPGVPARFSGSLLGGKAALTLSGVQPEDEAEYYCVLWYSNLWVFGGGTKLTVLGQPKAAPSVTLFPPSSEELQANKATLVCLISDFYPGAVTVAWKADSSPVKAGVETTTPSKQSNNKYAASSYLSLTPEQWKSHRSYSCQVTHEGSTVEKTVAPT | – | – | no binding (tested: 40 µg/mL) | no binding (tested: 40 µg/mL) | ~0.09 | no binding (tested: 40 µg/mL) | no binding (tested: 40 µg/mL) | –
15H3L3-LL (15H3L3 with IgG1 constant region L234A/L235A) (antibody) heavy: not shown light: QAVVTQEPSLTVSPGGTVTLTCQSSTGAVTTNNYANWVQQKPGHAFRGLIGGTKQRAPGVPARFSGSLLGGKAALTLSGVQPEDEAEYYCVLWYSNLWVFGGGTKLTVLGQPKAAPSVTLFPPSSEELQANKATLVCLISDFYPGAVTVAWKADSSPVKAGVETTTPSKQSNNKYAASSYLSLTPEQWKSHRSYSCQVTHEGSTVEKTVAPT | – | – | binds | binds | ~0.09 | binds | no binding (tested: 40 µg/mL) | –

From US20220195043A1 (BEIJING MABWORKS BIOTECH, published 2022)
